# B1: ZNF232 (parent)
# chain: GKAYGWCSELIRHRRVHARKEPSH
# Variants of: B1
# Assay: protein stability index of a GFP-peptide fusion (GPS, HEK-293T) (PSI 1-6); higher = more stable
# Details: c terminus: a fixed tail appended
# 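Note: lentivirally expressed fusions sorted by FACS into six bins by GFP to DsRed ratio, PSI derived from sequencing read proportions per bin multiplied by bin number.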
row,Variant,protein stability index
1,GKAYGWCSELIRHRRVHARIEPSH,2.05
2,GKAYGWCSELIRHRRVHARFEPSH,1.9
3,GKAYGWCSELIRHRRVHAREEPSH,3.07
4,GKAYGWCSELIRHRRVHARCEPSH,2.6
5,GKAYGWCSELIRHRRVHARDEPSH,3.45
6,GKAYGWCSELIRHRRVHARHEPSH,2.97
7,GKAYGWCSELIRHRRVHARAEPSH,3.19
8,GKAYGWCSELIRHRRVHARGEPSH,2.86
9,GKAYGWCSELIRHRRPHARKEPSH,3.35
10,GKAYGWCSELIRHRRQHARKEPSH,3.53
11,GKAYGWCSELIRHRRTHARKEPSH,3.07
12,GKAYGWCSELIRHRRYHARKEPSH,2.74
13,GKAYGWCSELIRHRRHHARKEPSH,3.41
14,GKAYGWCSELIRHRRFHARKEPSH,2.87
15,GKAYGWCSELIRHRRAHARKEPSH,2.71
16,GKAYGWCSELIRHRRIHARKEPSH,2.42
17,GKAYGWCSELIRHRRRHARKEPSH,3.67
18,GKAYGWCSELIRHRRGHARKEPSH,3.53
19,GKAYGWCSELIRHRRDHARKEPSH,3.49
20,GKAYGWCSELIRHRRSHARKEPSH,3.48
21,GKAYGWCSELIRHRRCHARKEPSH,2.52
22,GKAYGWCSELIRHRRKHARKEPSH,3.22
23,GKAYGWCSELIRHRRMHARKEPSH,3.43
24,GKAYGWCSELIRHRREHARKEPSH,3.16

row,Variant,protein stability index
1,GKAYGWCSELIRHRRWHARKEPSH,2.55
2,GKAYGWCSELIRHRRNHARKEPSH,3.26
3,GKAYGWCSELIRHRRLHARKEPSH,2.9
4,GKAYGWCSELIRHRRVHNRKEPSH,2.84
5,GKAYGWCSELIRHRRVHCRKEPSH,2.88
6,GKAYGWCSELIRHRRVHFRKEPSH,2.49
7,GKAYGWCSELIRHRRVHHRKEPSH,2.86
8,GKAYGWCSELIRHRRVHKRKEPSH,3.19
9,GKAYGWCSELIRHRRVHPRKEPSH,3.33
10,GKAYGWCSELIRHRRVHRRKEPSH,3.28
11,GKAYGWCSELIRHRRVHDRKEPSH,3.84
12,GKAYGWCSELIRHRRVHTRKEPSH,3.28
13,GKAYGWCSELIRHRRVHQRKEPSH,2.81
14,GKAYGWCSELIRHRRVHWRKEPSH,1.83
15,GKAYGWCSELIRHRRVHGRKEPSH,3
16,GKAYGWCSELIRHRRVHVRKEPSH,2.59
17,GKAYGWCSELIRHRRVHIRKEPSH,3.04
18,GKAYGWCSELIRHRRVHSRKEPSH,3.37
19,GKAYGWCSELIRHRRVHLRKEPSH,2.13
20,GKAYGWCSELIRHRRVHMRKEPSH,3.25
21,GKAYGWCSELIRHRRVHERKEPSH,3.74
22,GKAYGWCSELIRHRRVHYRKEPSH,2.76
23,GKAYGWCSELIRHRRVWARKEPSH,1.87
24,GKAYGWCSELIRHRRVEARKEPSH,3.28

row,Variant,protein stability index
1,GKAYGWCSELIRHRRVAARKEPSH,2.77
2,GKAYGWCSELIRHRRVDARKEPSH,3.36
3,GKAYGWCSELIRHRRVTARKEPSH,3.28
4,GKAYGWCSELIRHRRVIARKEPSH,2.51
5,GKAYGWCSELIRHRRVCARKEPSH,3.46
6,GKAYGWCSELIRHRRVSARKEPSH,2.76
7,GKAYGWCSELIRHRRVPARKEPSH,3.02
8,GKAYGWCSELIRHRRVRARKEPSH,3.03
9,GKAYGWCSELIRHRRVYARKEPSH,2.16
10,GKAYGWCSELIRHRRVFARKEPSH,2.49
11,GKAYGWCSELIRHRRVNARKEPSH,2.72
12,GKAYGWCSELIRHRRVLARKEPSH,2.99
13,GKAYGWCSELIRHRRVKARKEPSH,3.32
14,GKAYGWCSELIRHRRVGARKEPSH,3.57
15,GKAYGWCSELIRHRRVVARKEPSH,2.84
16,GKAYGWCSELIRHRRVQARKEPSH,3.04
17,GKAYGWCSELIRHRRVMARKEPSH,2.75
18,GKAYGWCSELIRHCRVHARKEPSH,1.86
19,GKAYGWCSELIRHVRVHARKEPSH,2.45
20,GKAYGWCSELIRHPRVHARKEPSH,2.95
21,GKAYGWCSELIRHYRVHARKEPSH,2.05
22,GKAYGWCSELIRHIRVHARKEPSH,2.04
23,GKAYGWCSELIRHDRVHARKEPSH,2.65
24,GKAYGWCSELIRHFRVHARKEPSH,2.33

row,Variant,protein stability index
1,GKAYGWCSELIRHQRVHARKEPSH,3.08
2,GKAYGWCSELIRHMRVHARKEPSH,1.73
3,GKAYGWCSELIRHLRVHARKEPSH,2.03
4,GKAYGWCSELIRHTRVHARKEPSH,2.62
5,GKAYGWCSELIRHNRVHARKEPSH,3.23
6,GKAYGWCSELIRHWRVHARKEPSH,1.94
7,GKAYGWCSELIRHARVHARKEPSH,2.9
8,GKAYGWCSELIRHGRVHARKEPSH,2.72
9,GKAYGWCSELIRHSRVHARKEPSH,2.27
10,GKAYGWCSELIRHERVHARKEPSH,2.86
11,GKAYGWCSELIRHHRVHARKEPSH,2.77
12,GKAYGWCSELIRHKRVHARKEPSH,2.61
13,GKAYGWCSELIRHRVVHARKEPSH,2.44
14,GKAYGWCSELIRHRNVHARKEPSH,2.93
15,GKAYGWCSELIRHRCVHARKEPSH,1.99
16,GKAYGWCSELIRHRQVHARKEPSH,3.07
17,GKAYGWCSELIRHRDVHARKEPSH,2.61
18,GKAYGWCSELIRHRFVHARKEPSH,2.45
19,GKAYGWCSELIRHRPVHARKEPSH,3.25
20,GKAYGWCSELIRHRGVHARKEPSH,2.61
21,GKAYGWCSELIRHRHVHARKEPSH,2.92
22,GKAYGWCSELIRHRMVHARKEPSH,3.16
23,GKAYGWCSELIRHRAVHARKEPSH,2.81
24,GKAYGWCSELIRHRYVHARKEPSH,2.38

row,Variant,protein stability index
1,GKAYGWCSELIRHRLVHARKEPSH,2.02
2,GKAYGWCSELIRHREVHARKEPSH,3.28
3,GKAYGWCSELIRHRSVHARKEPSH,3.36
4,GKAYGWCSELIRHRKVHARKEPSH,3
5,GKAYGWCSELIRHRWVHARKEPSH,2.25
6,GKAYGWCSELIRHRIVHARKEPSH,2.56
7,GKAYGWCSELIRHRTVHARKEPSH,3.19
8,GKAYGWCSELIRHRRVHAMKEPSH,3.18
9,GKAYGWCSELIRHRRVHAAKEPSH,2.54
10,GKAYGWCSELIRHRRVHAIKEPSH,3.09
11,GKAYGWCSELIRHRRVHAGKEPSH,3.01
12,GKAYGWCSELIRHRRVHAWKEPSH,2.15
13,GKAYGWCSELIRHRRVHASKEPSH,2.8
14,GKAYGWCSELIRHRRVHADKEPSH,3.31
15,GKAYGWCSELIRHRRVHAPKEPSH,2.37
16,GKAYGWCSELIRHRRVHAVKEPSH,2.52
17,GKAYGWCSELIRHRRVHAYKEPSH,1.81
18,GKAYGWCSELIRHRRVHAQKEPSH,3.44
19,GKAYGWCSELIRHRRVHAFKEPSH,2.15
20,GKAYGWCSELIRHRRVHATKEPSH,2.89
21,GKAYGWCSELIRHRRVHAEKEPSH,3.53
22,GKAYGWCSELIRHRRVHANKEPSH,3.81
23,GKAYGWCSELIRHRRVHALKEPSH,1.94
24,GKAYGWCSELIRHRRVHAKKEPSH,2.82

row,Variant,protein stability index
1,GKAYGWCSELIRHRRVHACKEPSH,2.68
2,GKAYGWCSELIRHRRVHAHKEPSH,2.66
3,GKAYGWCSESIRHRRVHARKEPSH,3.4
4,GKAYGWCSEPIRHRRVHARKEPSH,3.8
5,GKAYGWCSERIRHRRVHARKEPSH,3.35
6,GKAYGWCSEWIRHRRVHARKEPSH,2.77
7,GKAYGWCSETIRHRRVHARKEPSH,3.16
8,GKAYGWCSEYIRHRRVHARKEPSH,2.22
9,GKAYGWCSEQIRHRRVHARKEPSH,2.78
10,GKAYGWCSENIRHRRVHARKEPSH,3.54
11,GKAYGWCSEVIRHRRVHARKEPSH,3.54
12,GKAYGWCSELIRRRRVHARKEPSH,3.53
13,GKAYGWCSELIRKRRVHARKEPSH,3.29
14,GKAYGWCSELIRARRVHARKEPSH,2.62
15,GKAYGWCSELIRTRRVHARKEPSH,3.16
16,GKAYGWCSELIRDRRVHARKEPSH,2.99
17,GKAYGWCSELIRMRRVHARKEPSH,2.36
18,GKAYGWCSELIRCRRVHARKEPSH,2.39
19,GKAYGWCSELIRWRRVHARKEPSH,3.04
20,GKAYGWCSELIRIRRVHARKEPSH,1.89
21,GKAYGWCSELIRERRVHARKEPSH,3.42
22,GKAYGWCSELIRYRRVHARKEPSH,2.24
23,GKAYGWCSELIRVRRVHARKEPSH,2.1
24,GKAYGWCSELIRQRRVHARKEPSH,3.22

row,Variant,protein stability index
1,GKAYGWCSELIRGRRVHARKEPSH,3.46
2,GKAYGWCSELIRSRRVHARKEPSH,2.57
3,GKAYGWCSELIRNRRVHARKEPSH,2.69
4,GKAYGWCSELIRPRRVHARKEPSH,2.75
5,GKAYGWCSELIRFRRVHARKEPSH,1.94
6,GKAYGWCSELIRLRRVHARKEPSH,1.97
7,GKAYGWCSELSRHRRVHARKEPSH,3.8
8,GKAYGWCSELGRHRRVHARKEPSH,3.35
9,GKAYGWCSELRRHRRVHARKEPSH,3.67
10,GKAYGWCSELNRHRRVHARKEPSH,3.02
11,GKAYGWCSELWRHRRVHARKEPSH,2.79
12,GKAYGWCSELTRHRRVHARKEPSH,3.34
13,GKAYGWCSELLRHRRVHARKEPSH,2.61
14,GKAYGWCSELQRHRRVHARKEPSH,4.02
15,GKAYGWCSELHRHRRVHARKEPSH,3.31
16,GKAYGWCSELMRHRRVHARKEPSH,3.18
17,GKAYGWCSELCRHRRVHARKEPSH,3.37
18,GKAYGWCSELPRHRRVHARKEPSH,3.11
19,GKAYGWCSELDRHRRVHARKEPSH,3.9
20,GKAYGWCSELKRHRRVHARKEPSH,3.16
21,GKAYGWCSELERHRRVHARKEPSH,3.43
22,GKAYGWCSELARHRRVHARKEPSH,3.41
23,GKAYGWCSELVRHRRVHARKEPSH,2.92
24,GKAYGWCSELFRHRRVHARKEPSH,2.79

row,Variant,protein stability index
1,GKAYGWCSELYRHRRVHARKEPSH,2.9
2,GKAYGWCSELIGHRRVHARKEPSH,2.92
3,GKAYGWCSELICHRRVHARKEPSH,2.57
4,GKAYGWCSELIWHRRVHARKEPSH,2.14
5,GKAYGWCSELIDHRRVHARKEPSH,3.03
6,GKAYGWCSELIIHRRVHARKEPSH,2.22
7,GKAYGWCSELIVHRRVHARKEPSH,2.31
8,GKAYGWCSELIYHRRVHARKEPSH,2.32
9,GKAYGWCSELIMHRRVHARKEPSH,2.25
10,GKAYGWCSELITHRRVHARKEPSH,3.1
11,GKAYGWCSELIHHRRVHARKEPSH,3.24
12,GKAYGWCSELIKHRRVHARKEPSH,3.17
13,GKAYGWCSELISHRRVHARKEPSH,3.16
14,GKAYGWCSELIFHRRVHARKEPSH,2.41
15,GKAYGWCSELIAHRRVHARKEPSH,2.82
16,GKAYGWCSELIQHRRVHARKEPSH,3.02
17,GKAYGWCSELINHRRVHARKEPSH,3.36
18,GKAYGWCSELIEHRRVHARKEPSH,3.54
19,GKAYGWCSELILHRRVHARKEPSH,2.65
20,GKAYGWCSELIPHRRVHARKEPSH,3.21
